From patent US20230212289A1
Residue numbers refer to the chain shown, from its start.

B1: H4L1 (antibody, V domains shown)
VH: QVQLQQSGAEVKKPGASVKMSCKASGYTFTRYTMHWVRQAPGQGLEWIGYINPSRGYTNYNQKFKDRVTLTTDTSISTAYMELSRLRSDDTAVYYCARYYDDHYSLDYWGQGTTLTVSS
VL: DIQMTQSPSSLSASVGDRVTMTCSASSSVSYMNWYQQKPGKAPKRLIYDTSKLASGVPSRFSGSGSGTDFTLTISSLQPEDFATYYCQQWSSNPFTFGSGTKLEINR
B2: H3L5 (antibody, V domains shown)
VH: B1 VH with Q5V, V68A, L70M, T74K
VL: B1 VL with M21I, L46W
B3: H3L1 (antibody, V domains shown)
VH: B1 VH with Q5V, V68A, L70M, T74K
VL: B1 VL
B4: H3L3 (antibody, V domains shown)
VH: B1 VH with Q5V, V68A, L70M, T74K
VL: B1 VL with M4L, M21I, R45L, F70Y
B5: H2L2 (antibody, V domains shown)
VH: B1 VH with K12A, M20V, I48M, V68A, T72R, T74K
VL: B1 VL with R45L, L77M
B6: H2L1 (antibody, V domains shown)
VH: B1 VH with K12A, M20V, I48M, V68A, T72R, T74K
VL: B1 VL
B7: H4L5 (antibody, V domains shown)
VH: B1 VH
VL: B1 VL with M21I, L46W
B8: H2L4 (antibody, V domains shown)
VH: B1 VH with K12A, M20V, I48M, V68A, T72R, T74K
VL: B1 VL with M4L, M21I, R45L, L77M
B9: H4L3 (antibody, V domains shown)
VH: B1 VH
VL: B1 VL with M4L, M21I, R45L, F70Y
B10: H2L5 (antibody, V domains shown)
VH: B1 VH with K12A, M20V, I48M, V68A, T72R, T74K
VL: B1 VL with M21I, L46W
B11: H3L6 (antibody, V domains shown)
VH: B1 VH with Q5V, V68A, L70M, T74K
VL: B1 VL with M21I, R45L, L46W, F70Y
B12: H4L2 (antibody, V domains shown)
VH: B1 VH
VL: B1 VL with R45L, L77M
B13: H3L2 (antibody, V domains shown)
VH: B1 VH with Q5V, V68A, L70M, T74K
VL: B1 VL with R45L, L77M
B14: H4L6 (antibody, V domains shown)
VH: B1 VH
VL: B1 VL with M21I, R45L, L46W, F70Y
B15: H2L6 (antibody, V domains shown)
VH: B1 VH with K12A, M20V, I48M, V68A, T72R, T74K
VL: B1 VL with M21I, R45L, L46W, F70Y
B16: H4L4 (antibody, V domains shown)
VH: B1 VH
VL: B1 VL with M4L, M21I, R45L, L77M
B17: H2L3 (antibody, V domains shown)
VH: B1 VH with K12A, M20V, I48M, V68A, T72R, T74K
VL: B1 VL with M4L, M21I, R45L, F70Y
B18: H3L4 (antibody, V domains shown)
VH: B1 VH with Q5V, V68A, L70M, T74K
VL: B1 VL with M4L, M21I, R45L, L77M

The molecules below were run against CD3 (antigen of the binding affinity table of Example 1) (UniProt P07766) (assay: kinetic fit with two-state parameters; method not given).

Kd [nM]	ka2 [s⁻¹]	kd2 [s⁻¹]	koff [s⁻¹]	kon [M⁻¹ s⁻¹]	Molecule
0.622	0.0105	0.00194	0.138	3.44e+07	OKT3-chimeric (antibody)
7.49	0.0282	0.0023	0.176	1.77e+06	B1
7.6	0.00709	0.00496	0.0647	3.51e+06	B2
1.16	0.0229	0.000831	0.155	4.67e+06	B3
1.38	0.0191	0.000815	0.402	1.19e+07	B4
0.892	0.0268	0.000814	0.0986	3.26e+06	B5
0.808	0.026	0.000779	0.0979	3.52e+06	B6
9.96	0.0041	0.000744	0.141	2.17e+06	B7
0.642	0.0234	0.000671	0.0814	3.54e+06	B8
14.7	0.0205	0.00238	0.264	1.88e+06	B9
2.55	0.0127	0.00369	0.0567	5.02e+06	B10
8.84	0.00491	0.00243	0.0814	3.05e+06	B11
15.3	0.026	0.00294	0.217	1.44e+06	B12
1.75	0.0234	0.000939	0.139	3.06e+06	B13
12.4	0.00534	0.000594	0.251	2.02e+06	B14
5.68	0.0101	0.00581	0.0638	4.1e+06	B15
13.9	0.0212	0.0023	0.248	1.75e+06	B16
0.619	0.0228	0.000719	0.13	6.42e+06	B17
1.33	0.0213	0.000744	0.119	3.03e+06	B18
